Our source for the stoichiometry N values is publication PMC7730623.

As usually defined, the stoichiometry N is a count of units in the complex or per binding partner.

Assay [1] has as its target human ameloblastin full-length isoform I (AMBN ISO I) (human) (UniProt Q9NP70). As to the kind of experiment: AUC; sedimentation velocity, 23 uM protein, 20 °C, 10 mM Tris-HCl pH 7.4, 100 mM NaCl, no Ca2+; c(s) with bimodal f/f0; average size of heterogeneous oligomers.
The target is the same in assay [2]. Description: AUC; sedimentation velocity, 23 uM protein, 20 °C, 10 mM Tris-HCl pH 7.4, 100 mM NaCl, with 10 mM CaCl2; c(s) with bimodal f/f0; average size of heterogeneous oligomers.
For assay [3], the target named is human ameloblastin full-length isoform II (AMBN ISO II) (human) (UniProt Q9NP70). As to the kind of experiment: AUC; sedimentation velocity, 23 uM protein, 20 °C, 10 mM Tris-HCl pH 7.4, 100 mM NaCl, no Ca2+; c(s) with bimodal f/f0; average size of heterogeneous oligomers.
Assay [4] has the same target. As to the kind of experiment: AUC; sedimentation velocity, 23 uM protein, 20 °C, 10 mM Tris-HCl pH 7.4, 100 mM NaCl, with 10 mM CaCl2; c(s) with bimodal f/f0; average size of heterogeneous oligomers.

With “human ameloblastin full-length isoform I (AMBN ISO I) (from UniProt Q9NP70-1 27-447) (natural protein)”, the stoichiometry N in assay [1] was 28 monomers; in assay [2], 33 monomers.
In the case of “human ameloblastin full-length isoform II (AMBN ISO II) (from UniProt Q9NP70-2 27-432) (natural protein)”, the stoichiometry N in assay [3] was 19 monomers; in assay [4] it was 20 monomers.
